Reference: the supplement of paper PMC10567573

B1: TRIB1 (parent)
chain: EIGTSDQIVPEYQEDSDISSFFC

Variants of: B1
Test: protein stability index of a GFP-peptide fusion (GPS, HEK-293T) (PSI 1-6); higher = more stable
Conditions: c terminus: native
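Further: lentivirally expressed fusions sorted by FACS into six bins by GFP to DsRed ratio, PSI derived from sequencing read proportions per bin multiplied by bin number.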

Going from EIGTSDQIVPEYQEDSDDSSFFC [I18D] to EIGTSDQIVPEYQEDSDESSFFC [I18E], the protein stability index falls from 3.36 to 2.69.

First: EIGTSDQIVPEYQEDSDRSSFFC [I18R]
Second: EIGTSDQIVPEYQEDSDASSFFC [I18A]
The protein stability index of the first is higher: 4.26 for the first, 3.4 for the second.

Compared with EIGTSDQIVPEYQEDSDNSSFFC [I18N], EIGTSDQIVPEYQEDSDQSSFFC [I18Q] is higher in protein stability index: 3.75 for the first, 3.9 for the second.

First: EIGTSDQIVPEYQEDSDGSSFFC [I18G]
Second: EIGTSDQIVPEYQEDSDKSSFFC [I18K]
The protein stability index of the first is lower: 3.6 for the first, 4.39 for the second.

Going from EIGTSDQIVPEYQEDSDPSSFFC [I18P] to EIGTSDQIVPEYQEDSDFSSFFC [I18F], the protein stability index rises from 2.88 to 2.91.

Compared with EIGTSDQIVPEYQEDSDLSSFFC [I18L], EIGTSDQIVPEYQEDSDCSSFFC [I18C] is higher in protein stability index: 2.92 for the first, 3.16 for the second.

Going from EIGTSDQIVPEYQEDSDHSSFFC [I18H] to EIGTSDQIVPEYQEDSDMSSFFC [I18M], the protein stability index falls from 3.69 to 3.29.

Compared with EIGTSDQIVPEYQEDSYISSFFC [D17Y], EIGTSDQIVPEYQEDSSISSFFC [D17S] is higher in protein stability index: 2.99 for the first, 3.13 for the second.

Going from EIGTSDQIVPEYQEDSFISSFFC [D17F] to EIGTSDQIVPEYQEDSIISSFFC [D17I], the protein stability index rises from 3.2 to 3.28.

Going from EIGTSDQIVPEYQEDSMISSFFC [D17M] to EIGTSDQIVPEYQEDSRISSFFC [D17R], the protein stability index rises from 3.16 to 3.48.

First: EIGTSDQIVPEYQEDSKISSFFC [D17K]
Second: EIGTSDQIVPEYQEDSWISSFFC [D17W]
The protein stability index of the first is higher: 4.29 for the first, 2.42 for the second.

Compared with EIGTSDQIVPEYQEDSAISSFFC [D17A], EIGTSDQIVPEYQEDSNISSFFC [D17N] is higher in protein stability index: 3.21 for the first, 3.26 for the second.

First: EIGTSDQIVPEYQEDSCISSFFC [D17C]
Second: EIGTSDQIVPEYQEDSHISSFFC [D17H]
The protein stability index of the first is lower: 2.92 for the first, 3.47 for the second.

First: EIGTSDQIVPEYQEDSEISSFFC [D17E]
Second: EIGTSDQIVPEYQEDSTISSFFC [D17T]
The protein stability index of the first is lower: 2.61 for the first, 3.29 for the second.

First: EIGTSDQIVPEYQEDSLISSFFC [D17L]
Second: EIGTSDQIVPEYQEDSVISSFFC [D17V]
The protein stability index of the first is higher: 3.2 for the first, 2.87 for the second.

Going from EIGTSDQIVPEYQEDSQISSFFC [D17Q] to EIGTSDQIVPEYQEDSPISSFFC [D17P], the protein stability index rises from 2.94 to 3.12.

Compared with EIGTSDQIVPEYQEDSGISSFFC [D17G], EIGTSDQIVPEYQEDCDISSFFC [S16C] is lower in protein stability index: 4.13 for the first, 2.41 for the second.

Going from EIGTSDQIVPEYQEDEDISSFFC [S16E] to EIGTSDQIVPEYQEDDDISSFFC [S16D], the protein stability index rises from 1.75 to 2.15.

Compared with EIGTSDQIVPEYQEDPDISSFFC [S16P], EIGTSDQIVPEYQEDMDISSFFC [S16M] is higher in protein stability index: 1.86 for the first, 2.45 for the second.

Going from EIGTSDQIVPEYQEDRDISSFFC [S16R] to EIGTSDQIVPEYQEDLDISSFFC [S16L], the protein stability index falls from 4.11 to 2.65.

Compared with EIGTSDQIVPEYQEDHDISSFFC [S16H], EIGTSDQIVPEYQEDQDISSFFC [S16Q] is higher in protein stability index: 2.68 for the first, 3.32 for the second.

Going from EIGTSDQIVPEYQEDIDISSFFC [S16I] to EIGTSDQIVPEYQEDWDISSFFC [S16W], the protein stability index rises from 2.04 to 2.27.

Compared with EIGTSDQIVPEYQEDKDISSFFC [S16K], EIGTSDQIVPEYQEDTDISSFFC [S16T] is lower in protein stability index: 3.5 for the first, 2.56 for the second.

First: EIGTSDQIVPEYQEDVDISSFFC [S16V]
Second: EIGTSDQIVPEYQEDADISSFFC [S16A]
The protein stability index of the first is lower: 3.02 for the first, 3.03 for the second.

First: EIGTSDQIVPEYQEDGDISSFFC [S16G]
Second: EIGTSDQIVPEYQEDNDISSFFC [S16N]
The protein stability index of the first is higher: 2.9 for the first, 2.68 for the second.

First: EIGTSDQIVPEYQEDFDISSFFC [S16F]
Second: EIGTSDQIVPEYQEDYDISSFFC [S16Y]
The protein stability index of the first is higher: 2.6 for the first, 2.28 for the second.

First: EIGTSDQIVPEYSEDSDISSFFC [Q13S]
Second: EIGTSDQIVPEYYEDSDISSFFC [Q13Y]
The protein stability index of the first is higher: 2.43 for the first, 2.12 for the second.

Going from EIGTSDQIVPEYPEDSDISSFFC [Q13P] to EIGTSDQIVPEYTEDSDISSFFC [Q13T], the protein stability index falls from 3.5 to 1.97.

Compared with EIGTSDQIVPEYWEDSDISSFFC [Q13W], EIGTSDQIVPEYVEDSDISSFFC [Q13V] is higher in protein stability index: 1.72 for the first, 2.52 for the second.

Going from EIGTSDQIVPEYREDSDISSFFC [Q13R] to EIGTSDQIVPEYQEPSDISSFFC [D15P], the protein stability index rises from 2.92 to 3.02.

Going from EIGTSDQIVPEYQEKSDISSFFC [D15K] to EIGTSDQIVPEYQEWSDISSFFC [D15W], the protein stability index falls from 3.42 to 2.9.

Going from EIGTSDQIVPEYQEISDISSFFC [D15I] to EIGTSDQIVPEYQEVSDISSFFC [D15V], the protein stability index rises from 2.28 to 2.81.

Compared with EIGTSDQIVPEYQEHSDISSFFC [D15H], EIGTSDQIVPEYQEESDISSFFC [D15E] is lower in protein stability index: 3.28 for the first, 2.2 for the second.

First: EIGTSDQIVPEYQEASDISSFFC [D15A]
Second: EIGTSDQIVPEYQERSDISSFFC [D15R]
The protein stability index of the first is lower: 3.59 for the first, 4.24 for the second.

First: EIGTSDQIVPEYQEQSDISSFFC [D15Q]
Second: EIGTSDQIVPEYQELSDISSFFC [D15L]
The protein stability index of the first is higher: 2.92 for the first, 2.18 for the second.

Compared with EIGTSDQIVPEYQESSDISSFFC [D15S], EIGTSDQIVPEYQECSDISSFFC [D15C] is lower in protein stability index: 3.33 for the first, 2.62 for the second.

First: EIGTSDQIVPEYQETSDISSFFC [D15T]
Second: EIGTSDQIVPEYQENSDISSFFC [D15N]
The protein stability index of the first is lower: 3.4 for the first, 3.86 for the second.

Going from EIGTSDQIVPEYQEMSDISSFFC [D15M] to EIGTSDQIVPEYQEYSDISSFFC [D15Y], the protein stability index falls from 2.67 to 2.48.

First: EIGTSDQIVPEYQEFSDISSFFC [D15F]
Second: EIGTSDQIVPEYQEGSDISSFFC [D15G]
The protein stability index of the first is lower: 2.24 for the first, 3.71 for the second.

First: EIGTSDQIVPEYQCDSDISSFFC [E14C]
Second: EIGTSDQIVPEYQKDSDISSFFC [E14K]
The protein stability index of the first is lower: 2.48 for the first, 4.03 for the second.

Compared with EIGTSDQIVPEYQIDSDISSFFC [E14I], EIGTSDQIVPEYQVDSDISSFFC [E14V] is higher in protein stability index: 1.68 for the first, 2.08 for the second.

First: EIGTSDQIVPEYQWDSDISSFFC [E14W]
Second: EIGTSDQIVPEYQLDSDISSFFC [E14L]
The protein stability index of the first is lower: 1.7 for the first, 1.99 for the second.

First: EIGTSDQIVPEYQTDSDISSFFC [E14T]
Second: EIGTSDQIVPEYQMDSDISSFFC [E14M]
The protein stability index of the first is higher: 2.81 for the first, 2.4 for the second.

Compared with EIGTSDQIVPEYQNDSDISSFFC [E14N], EIGTSDQIVPEYQGDSDISSFFC [E14G] is lower in protein stability index: 2.94 for the first, 2.83 for the second.

Compared with EIGTSDQIVPEYQFDSDISSFFC [E14F], EIGTSDQIVPEYQQDSDISSFFC [E14Q] is higher in protein stability index: 2.33 for the first, 3.37 for the second.

First: EIGTSDQIVPEYQDDSDISSFFC [E14D]
Second: EIGTSDQIVPEYQYDSDISSFFC [E14Y]
The protein stability index of the first is higher: 2.65 for the first, 2.43 for the second.

Going from EIGTSDQIVPEYQPDSDISSFFC [E14P] to EIGTSDQIVPEYQRDSDISSFFC [E14R], the protein stability index rises from 2 to 4.42.

First: EIGTSDQIVPEYQSDSDISSFFC [E14S]
Second: EIGTSDQIVPEYQHDSDISSFFC [E14H]
The protein stability index of the first is lower: 2.88 for the first, 3.56 for the second.

EIGTSDQIVPEYQADSDISSFFC [E14A] gave a protein stability index of 2.81.
